Measured values published in the Human Domainome abundance scans (Beltran et al. 2025).
± gives the uncertainty stated by the source.

B1: Tesmin, residues 368 to 403; numbered along this chain, Q9Y4I5 (parent)
chain: KGCNCRRSGCLKNYCECYEAQIMCSSICKCIGCKNY

Variants of: B1
Assay: abundance fitness (aPCA) (normalised: wild type 0, dead -1); higher = more abundant; growth selection in yeast, the domain comes from the species named
Details: Homo sapiens

Variant	abundance fitness
KGCNCLRSGCLKNYCECYEAQIMCSSICKCIGCKNY	0.204 ± 0.085
KGCNCGRSGCLKNYCECYEAQIMCSSICKCIGCKNY	0.151 ± 0.073
KGCNCFRSGCLKNYCECYEAQIMCSSICKCIGCKNY	-0.169 ± 0.19
KGCNCWRSGCLKNYCECYEAQIMCSSICKCIGCKNY	0.012 ± 0.081
KGCNCARSGCLKNYCECYEAQIMCSSICKCIGCKNY	0.33 ± 0.071
KGCNCNRSGCLKNYCECYEAQIMCSSICKCIGCKNY	-0.361 ± 0.35
KGCNCQRSGCLKNYCECYEAQIMCSSICKCIGCKNY	0.338 ± 0.1
KGCNCTRSGCLKNYCECYEAQIMCSSICKCIGCKNY	0.239 ± 0.085
KGCNCKRSGCLKNYCECYEAQIMCSSICKCIGCKNY	0.146 ± 0.1
KGCNCERSGCLKNYCECYEAQIMCSSICKCIGCKNY	0.214 ± 0.1
KGCNCVRSGCLKNYCECYEAQIMCSSICKCIGCKNY	0.12 ± 0.073
KGCNCSRSGCLKNYCECYEAQIMCSSICKCIGCKNY	0.303 ± 0.087
KGCNCDRSGCLKNYCECYEAQIMCSSICKCIGCKNY	0.156 ± 0.14
KGCNCCRSGCLKNYCECYEAQIMCSSICKCIGCKNY	0.036 ± 0.092
KVCNCRRSGCLKNYCECYEAQIMCSSICKCIGCKNY	-0.209 ± 0.11
KSCNCRRSGCLKNYCECYEAQIMCSSICKCIGCKNY	-0.194 ± 0.082
KLCNCRRSGCLKNYCECYEAQIMCSSICKCIGCKNY	-0.465 ± 0.18
KRCNCRRSGCLKNYCECYEAQIMCSSICKCIGCKNY	-0.447 ± 0.084
KTCNCRRSGCLKNYCECYEAQIMCSSICKCIGCKNY	-0.439 ± 0.2
KCCNCRRSGCLKNYCECYEAQIMCSSICKCIGCKNY	-0.448 ± 0.35
KWCNCRRSGCLKNYCECYEAQIMCSSICKCIGCKNY	-0.674 ± 0.14
KKCNCRRSGCLKNYCECYEAQIMCSSICKCIGCKNY	-0.565 ± 0.13
KMCNCRRSGCLKNYCECYEAQIMCSSICKCIGCKNY	-0.189 ± 0.29

Variant	abundance fitness
KQCNCRRSGCLKNYCECYEAQIMCSSICKCIGCKNY	-0.17 ± 0.11
KACNCRRSGCLKNYCECYEAQIMCSSICKCIGCKNY	-0.133 ± 0.1
KECNCRRSGCLKNYCECYEAQIMCSSICKCIGCKNY	0.017 ± 0.096
KPCNCRRSGCLKNYCECYEAQIMCSSICKCIGCKNY	0.07 ± 0.31
GGCNCRRSGCLKNYCECYEAQIMCSSICKCIGCKNY	-0.573 ± 0.2
LGCNCRRSGCLKNYCECYEAQIMCSSICKCIGCKNY	-0.211 ± 0.21
EGCNCRRSGCLKNYCECYEAQIMCSSICKCIGCKNY	-0.136 ± 0.086
SGCNCRRSGCLKNYCECYEAQIMCSSICKCIGCKNY	-0.401 ± 0.22
VGCNCRRSGCLKNYCECYEAQIMCSSICKCIGCKNY	-0.825 ± 0.28
CGCNCRRSGCLKNYCECYEAQIMCSSICKCIGCKNY	-0.775 ± 0.34
DGCNCRRSGCLKNYCECYEAQIMCSSICKCIGCKNY	-0.995 ± 0.17
KGCNCRRSTCLKNYCECYEAQIMCSSICKCIGCKNY	-0.22 ± 0.092
KGCNCRRSQCLKNYCECYEAQIMCSSICKCIGCKNY	-0.342 ± 0.14
KGCNCRRSVCLKNYCECYEAQIMCSSICKCIGCKNY	-0.334 ± 0.077
KGCNCRRSSCLKNYCECYEAQIMCSSICKCIGCKNY	-0.795 ± 0.08
KGCNCRRSWCLKNYCECYEAQIMCSSICKCIGCKNY	-1.51 ± 0.12
KGCNCRRSLCLKNYCECYEAQIMCSSICKCIGCKNY	-0.629 ± 0.13
KGCNCRRSPCLKNYCECYEAQIMCSSICKCIGCKNY	-0.213 ± 0.092
KGCNCRRSNCLKNYCECYEAQIMCSSICKCIGCKNY	-0.248 ± 0.25
KGCNCRRSECLKNYCECYEAQIMCSSICKCIGCKNY	0.006 ± 0.085
KGCNCRRSDCLKNYCECYEAQIMCSSICKCIGCKNY	0.111 ± 0.09
KGCNCRRSMCLKNYCECYEAQIMCSSICKCIGCKNY	-0.269 ± 0.1
KGCNCRRSACLKNYCECYEAQIMCSSICKCIGCKNY	-0.339 ± 0.074

Variant	abundance fitness
KGCNCRASGCLKNYCECYEAQIMCSSICKCIGCKNY	0.248 ± 0.075
KGCNCRQSGCLKNYCECYEAQIMCSSICKCIGCKNY	0.282 ± 0.12
KGCNCRPSGCLKNYCECYEAQIMCSSICKCIGCKNY	-0.103 ± 0.085
KGCNCRMSGCLKNYCECYEAQIMCSSICKCIGCKNY	0.214 ± 0.18
KGCNCRKSGCLKNYCECYEAQIMCSSICKCIGCKNY	0.039 ± 0.17
KGCNCRGSGCLKNYCECYEAQIMCSSICKCIGCKNY	0.268 ± 0.073
KGCNCRWSGCLKNYCECYEAQIMCSSICKCIGCKNY	-0.255 ± 0.073
KGCNCRLSGCLKNYCECYEAQIMCSSICKCIGCKNY	-0.021 ± 0.077
KGCNCRYSGCLKNYCECYEAQIMCSSICKCIGCKNY	0.035 ± 0.19
KGCNCRISGCLKNYCECYEAQIMCSSICKCIGCKNY	-0.336 ± 0.14
KGCNCRESGCLKNYCECYEAQIMCSSICKCIGCKNY	0.398 ± 0.096
KGCNCRTSGCLKNYCECYEAQIMCSSICKCIGCKNY	0.047 ± 0.14
KGCNCRCSGCLKNYCECYEAQIMCSSICKCIGCKNY	-0.401 ± 0.14
KGCNCRRVGCLKNYCECYEAQIMCSSICKCIGCKNY	-0.187 ± 0.077
KGCNCRRLGCLKNYCECYEAQIMCSSICKCIGCKNY	-0.106 ± 0.091
KGCNCRRFGCLKNYCECYEAQIMCSSICKCIGCKNY	-0.399 ± 0.15
KGCNCRRDGCLKNYCECYEAQIMCSSICKCIGCKNY	-0.066 ± 0.098
KGCNCRRNGCLKNYCECYEAQIMCSSICKCIGCKNY	-0.384 ± 0.13
KGCNCRRKGCLKNYCECYEAQIMCSSICKCIGCKNY	-0.107 ± 0.13
KGCNCRRGGCLKNYCECYEAQIMCSSICKCIGCKNY	0.034 ± 0.068
KGCNCRRWGCLKNYCECYEAQIMCSSICKCIGCKNY	-0.527 ± 0.095
KGCNCRRAGCLKNYCECYEAQIMCSSICKCIGCKNY	-0.144 ± 0.083
KGCNCRRQGCLKNYCECYEAQIMCSSICKCIGCKNY	-0.063 ± 0.11

Variant	abundance fitness
KGCNCRRRGCLKNYCECYEAQIMCSSICKCIGCKNY	-0.169 ± 0.068
KGCNCRRHGCLKNYCECYEAQIMCSSICKCIGCKNY	-0.461 ± 0.17
KGCNCRRMGCLKNYCECYEAQIMCSSICKCIGCKNY	-0.343 ± 0.12
KGCNCRRIGCLKNYCECYEAQIMCSSICKCIGCKNY	0.19 ± 0.37
KGCNCRREGCLKNYCECYEAQIMCSSICKCIGCKNY	-0.08 ± 0.1
KGCNCRRYGCLKNYCECYEAQIMCSSICKCIGCKNY	-0.514 ± 0.13
KGCNCRRCGCLKNYCECYEAQIMCSSICKCIGCKNY	-0.581 ± 0.093
KGCNCRRSGALKNYCECYEAQIMCSSICKCIGCKNY	-0.141 ± 0.091
KGCNCRRSGTLKNYCECYEAQIMCSSICKCIGCKNY	-0.245 ± 0.093
KGCNCRRSGVLKNYCECYEAQIMCSSICKCIGCKNY	-0.322 ± 0.075
KGCNCRRSGWLKNYCECYEAQIMCSSICKCIGCKNY	-0.418 ± 0.077
KGCNCRRSGILKNYCECYEAQIMCSSICKCIGCKNY	-1.37 ± 0.47
KGCNCRRSGKLKNYCECYEAQIMCSSICKCIGCKNY	-0.323 ± 0.096
KGCNCRRSGELKNYCECYEAQIMCSSICKCIGCKNY	0.004 ± 0.076
KGCNCRRSGDLKNYCECYEAQIMCSSICKCIGCKNY	-0.105 ± 0.098
KGCNCRRSGSLKNYCECYEAQIMCSSICKCIGCKNY	-0.213 ± 0.078
KGCNCRRSGLLKNYCECYEAQIMCSSICKCIGCKNY	-0.414 ± 0.098
KGCNCRRSGPLKNYCECYEAQIMCSSICKCIGCKNY	-0.633 ± 0.15
KGCNCRRSGRLKNYCECYEAQIMCSSICKCIGCKNY	-0.539 ± 0.071
KGCNCRRSGMLKNYCECYEAQIMCSSICKCIGCKNY	-0.501 ± 0.11
KGCNCRRSGNLKNYCECYEAQIMCSSICKCIGCKNY	-0.405 ± 0.11
KGCNCRRSGQLKNYCECYEAQIMCSSICKCIGCKNY	-0.208 ± 0.086
KGCICRRSGCLKNYCECYEAQIMCSSICKCIGCKNY	-0.31 ± 0.2

Variant	abundance fitness
KGCSCRRSGCLKNYCECYEAQIMCSSICKCIGCKNY	-0.103 ± 0.093
KGCMCRRSGCLKNYCECYEAQIMCSSICKCIGCKNY	-0.011 ± 0.083
KGCVCRRSGCLKNYCECYEAQIMCSSICKCIGCKNY	-1.13 ± 0.1
KGCCCRRSGCLKNYCECYEAQIMCSSICKCIGCKNY	-0.183 ± 0.1
KGCHCRRSGCLKNYCECYEAQIMCSSICKCIGCKNY	-0.199 ± 0.14
KGCECRRSGCLKNYCECYEAQIMCSSICKCIGCKNY	-0.056 ± 0.082
KGCYCRRSGCLKNYCECYEAQIMCSSICKCIGCKNY	-0.226 ± 0.092
KGCKCRRSGCLKNYCECYEAQIMCSSICKCIGCKNY	-0.314 ± 0.15
KGCACRRSGCLKNYCECYEAQIMCSSICKCIGCKNY	-0.162 ± 0.078
KGCTCRRSGCLKNYCECYEAQIMCSSICKCIGCKNY	-0.186 ± 0.094
KGCDCRRSGCLKNYCECYEAQIMCSSICKCIGCKNY	0.22 ± 0.11
KGCRCRRSGCLKNYCECYEAQIMCSSICKCIGCKNY	-0.16 ± 0.08
KGCLCRRSGCLKNYCECYEAQIMCSSICKCIGCKNY	-0.207 ± 0.077
KGCGCRRSGCLKNYCECYEAQIMCSSICKCIGCKNY	-0.103 ± 0.07
KGCPCRRSGCLKNYCECYEAQIMCSSICKCIGCKNY	-0.033 ± 0.083
KGANCRRSGCLKNYCECYEAQIMCSSICKCIGCKNY	-0.33 ± 0.073
KGHNCRRSGCLKNYCECYEAQIMCSSICKCIGCKNY	-0.363 ± 0.21
KGMNCRRSGCLKNYCECYEAQIMCSSICKCIGCKNY	-0.194 ± 0.1
KGTNCRRSGCLKNYCECYEAQIMCSSICKCIGCKNY	-0.322 ± 0.082
KGPNCRRSGCLKNYCECYEAQIMCSSICKCIGCKNY	-0.577 ± 0.11
KGLNCRRSGCLKNYCECYEAQIMCSSICKCIGCKNY	-0.677 ± 0.081
KGQNCRRSGCLKNYCECYEAQIMCSSICKCIGCKNY	-0.462 ± 0.085
KGWNCRRSGCLKNYCECYEAQIMCSSICKCIGCKNY	-0.624 ± 0.091

Variant	abundance fitness
KGGNCRRSGCLKNYCECYEAQIMCSSICKCIGCKNY	-0.236 ± 0.07
KGSNCRRSGCLKNYCECYEAQIMCSSICKCIGCKNY	-0.702 ± 0.11
KGINCRRSGCLKNYCECYEAQIMCSSICKCIGCKNY	-0.51 ± 0.23
KGKNCRRSGCLKNYCECYEAQIMCSSICKCIGCKNY	-0.115 ± 0.11
KGYNCRRSGCLKNYCECYEAQIMCSSICKCIGCKNY	-0.056 ± 0.27
KGFNCRRSGCLKNYCECYEAQIMCSSICKCIGCKNY	-0.567 ± 0.24
KGDNCRRSGCLKNYCECYEAQIMCSSICKCIGCKNY	-0.262 ± 0.14
KGCNDRRSGCLKNYCECYEAQIMCSSICKCIGCKNY	-0.794 ± 0.24
KGCNERRSGCLKNYCECYEAQIMCSSICKCIGCKNY	-0.176 ± 0.08
KGCNHRRSGCLKNYCECYEAQIMCSSICKCIGCKNY	0.066 ± 0.2
KGCNMRRSGCLKNYCECYEAQIMCSSICKCIGCKNY	-0.286 ± 0.11
KGCNLRRSGCLKNYCECYEAQIMCSSICKCIGCKNY	-0.455 ± 0.1
KGCNNRRSGCLKNYCECYEAQIMCSSICKCIGCKNY	-0.478 ± 0.21
KGCNTRRSGCLKNYCECYEAQIMCSSICKCIGCKNY	-0.431 ± 0.094
KGCNVRRSGCLKNYCECYEAQIMCSSICKCIGCKNY	-1.24 ± 0.083
KGCNQRRSGCLKNYCECYEAQIMCSSICKCIGCKNY	-0.346 ± 0.095
KGCNGRRSGCLKNYCECYEAQIMCSSICKCIGCKNY	-0.65 ± 0.069
KGCNSRRSGCLKNYCECYEAQIMCSSICKCIGCKNY	-0.342 ± 0.08
KGCNARRSGCLKNYCECYEAQIMCSSICKCIGCKNY	-0.414 ± 0.075
KGCNPRRSGCLKNYCECYEAQIMCSSICKCIGCKNY	-0.296 ± 0.1
KGCNIRRSGCLKNYCECYEAQIMCSSICKCIGCKNY	-0.936 ± 0.46
KGCNWRRSGCLKNYCECYEAQIMCSSICKCIGCKNY	-0.523 ± 0.079
